# Data: US20200308299A1, “ANTI-GPC-1 ANTIBODY” (National University Corporation Kochi University, priority 2017, published 2020)
# B1: clone 01a033 (antibody)
# heavy: QVQLKQSGPELVKPGASVKISCKASGYSFTGYYMHWVKQSPEKSLEWIGEINPSTGDTTYNQKFKAKATLTVDKSSSTAYMQLKSLTSEDSAVYYCAREKRDDGVFAYWGQGTLVTVSSAKTTAPSVYPLAPVCGDTTGSSVTLGCLVKGYFPEPVTLTWNSGSLSSGVHTFPAVLQSDLYTLSSSVTVTSSTWPSQSITCNVAHPASSTKVDKKIEPRGPTIKPCPPCKCPAPNLLGGPSVFIFPPKIKDVLMISLSPIVTCVVVDVSEDDPDVQISWFVNNVEVHTAQTQTHREDYNSTLRVVSALPIQHQDWMSGKEFKCKVNNKDLPAPIERTISKPKGSVRAPQVYVLPPPEEEMTKKQVTLTCMVTDFMPEDIYVEWTNNGKTELNYKNTEPVLDSDGSYFMYSKLRVEKKNWVERNSYSCSVVHEGLHNHHTTKSFSRTPGK
# light: DIVMSQSPKSMSMSVGERVALSCKASENVGTYVSWYQQKPEQSPKLLIYGASNRYTGVPDRFTGSGSATDFTLTISSVQAEDLADYYCGQSYSYPLTFGAGTKLELKRADAAPTVSIFPPSSEQLTSGGASVVCFLNNFYPKDINVKWKIDGSERQNGVLNSWTDQDSKDSTYSMSSTLTLTKDEYERHNSYTCEATHKTSTSPIVKSFNRNEC
# B2: GPC1 ADC (conjugate)
# heavy: B1 heavy
# light: B1 light
# Legend:
# [1] = system: TE4, TE5, TE6, TE8, TE9, TE10, TE11, TE14, TE15, HeLa, ME180; assay: In vitro antitumor effect of unlabeled antibody (CellTiter-Glo); assay type: cell-based; settings: 6 days
# Description: 2000 cells were added to a 96-well plate at 90 μl. The cells were cultured overnight at 37° C. in a 5% CO2 incubator. The next day, 10 μl of an unlabeled primary antibody concentrated […] relative to the final concentration was added to each well, so that the total amount was 100 μl. The cells were cultured for 6 days at 37° C. in a 5% CO2 incubator. The cell viability was measured by using a CellTiter-Glo Luminescent Cell Viability Assay reagent to detect the amount of ATP.
# TE14 cell strain = assay: In vivo antitumor effect of unlabeled anti-GPC1 antibody, TE14 graft in SCID mice; set-up: species or system mouse
# Description: Specifically, 2.0×10^6 cells of TE14 cell strain were subcutaneously grafted into female SCID mice (6 week old, n=9). When the tumor size reached about 100 mm^3 on about day 10 to 14 after grafting, administration of control mouse IgG2a (sigma, M7769) and anti-GPC1 antibody 01a033 each at 10 mg/kg was started, which were intraperitoneally administered on day 0, day 3, day 7, day 10, day 14, and day 17, with the day starting the administration considered 0 day. The tumor volume was measured on day 0, day 3, day 7, day 10, day 14, day 17, day 21, day 24, day 28, and day 31.
# [2] = Safety test on anti-GPC1 antibody 01a033 using mice; assay type: in vivo, mouse; settings: 1 mg/body ip, C57BL/6J mice, day 7
# Description: The following items were evaluated on day 7.
# Blood collection endpoints: WBC, RBC, Hb, Plt, T-Bil, ALT, ALP, Amy, BUN, Cr, Ca, P, TP, Alb, Na, K, Glob, and Glu, automatic blood cell counter: VetScan HMII, animal biochemical blood analyzer: VetScan VS2.
# [3] = system: GPC1 positive esophageal cancer cell strains (TE4, TE5, TE6, TE8, TE9, TE10, TE11, TE14, TE15); assay: In vitro ADC assay, GPC1 positive esophageal cancer cell strains; assay type: cell-based; settings: 144 hours of culture
# Description: (§1) Preparation of a conjugate of mouse anti-Glypican-1 mAb (01a033), mouse IgG2a (biolegend #400224) as a control, and mc-vc-PAB-MMAF was commissioned to MORADEC. An anticancer agent was conjugated to a cysteine residue via a cleavable linker. The DAR (drug-antibody ratio) was as follows. GPC1-CL-MMAF DAR=3.8, mouse IgG2a-CL-MMAF DAR=4.1.
# (§2) (1) The cells were seeded on Thermo Fisher Scientific's 96-well white plate (model no.: 136101) (90 μl cell suspension). RPMI1640+10% FBS+100 U/ml penicillin+100 μg/ml streptomycin was used as the medium. The cells were seeded in 60 wells, and 100 μL of medium was added to 36 wells, and cultured in a 5% CO2 incubator at 37° C. (2) The next day, 10 μL of ADC was added to the cells (total amount: 100 μL). (3) After 144 hours of culture, a CellTiter-Glo™ Luminescence Cell Viability Assay reagent (Promega) was added and mixed at 100 μL/well. (4) Measurements were taken with a plate reader. (5) Analysis was conducted with GraphPad Prism 6.
# (§3) The IC50 values were calculated from the following equation (Hossain M M, Hosono-Fukao T, Tang R, Sugaya N, van Kuppevelt T H, Jenniskens G J, Kimata K, Rosen S D, Uchimura K (2010) Direct detection of HSulf-1 and HSulf-2 activities on extracellular heparan sulphate and their inhibition by PI-88. Glycobiology 20(2): 175-186.)
# (§4) IC50=10^(Log [A][B]×(50−C)/(D−C)+Log [B]) […]
# BxPC3 cells = assay: In vitro ADC assay, BxPC3 cells; assay type: cell-based, human; settings: BxPC3, 144 hours
# Description: as §1, §2, §3, §4
# HeLa cells = assay: In vitro ADC assay, HeLa cells; assay type: cell-based; settings: 144 hours
# Description: as §1, §2, §3, §4
Molecule,antitumor effect in vitro [1],ADCC activity (TE14 cell strain; concluded from the lack of in vivo antitumor effect),"antitumor effect (tumor volume, tumor weight day 31) (TE14 cell strain; unlabeled antibody 10 mg/kg ip day 0, 3, 7, 10, 14, 17)","toxicity (blood cell count, biochemical blood analysis) [2]",effect of suppressing cell growth [3],effect of suppressing cell growth (BxPC3 cells),effect of suppressing cell growth (HeLa cells)
B1,not observed against any cell strain,does not have ADCC activity,no antitumor effect,Toxicity was not found,,,
B2,,,,,exhibits an effect of suppressing cell growth,exhibits an effect of suppressing cell growth,exhibits an effect of suppressing cell growth
